Laboratory results published in patent US20250304625A1, “ARTICLES AND METHODS FOR INHIBITING METHIONINE AMINOPEPTIDASE ACTIVITY” (Vanderbilt University, priority 2022, published 2025).
Each block holds one molecule with its values, some of them ahead of it.

How the values were obtained:
TKPTS cells = assay: TKPTS cell proliferation by CellTrace flow cytometry; assay type: cell-based, murine
Experimental: TKPTS cells were seeding at 2,000 to 4,000 cells per well of 24- or 12-well tissue culture treated multi-well plates and incubated overnight at 37° C. Cells were staining with CellTRACE violet (Invitrogen, C34557) as described by manufacturer's protocol. Briefly, CellTRACE solution was prepared in PBS at a 1:1,000 dilution, added to the cells, and cells were incubated for 20 min at 37° C. Cells were then washed two times in cell culture media supplemented with 7% FBS, and replaced with fresh cell culture media supplemented with desired chemical treatments (3 μM TPA, Sigma, 723134; 5 μg/ml TNP470, Sigma, T1455; or 50 nM Bengamide B, Santa cruz, sc-397521A). Stock solutions of drugs were prepared in ACS-grade DMSO (Fisher Scientific, D136). […] After three days of growth, cells were stained with MitoTracker far-red (Invitrogen, M22426; 1:2500 dilution for 20 min at 37° C.) and MitoSOX red (Molecular probes, M36008: 1,1000 for 20 min at 37° C.) following manufacture's protocols. Cells were washed with PBS, trypsinized, and transferred to Eppendorf tubes prior to fixation in 4% PFA (Alfa aesar, J61899). Cells were fixed for 20 min at room temperature, centrifuged at 200×g for 10 min and washed with PBS prior to resuspension in 300 μl FACS buffer (2% FBS, 0.02% sodium azide in PBS). All flow cytometry data were collected using a BD LSRII flow cytometer with FACSDIVA software and analyzed using FlowJo (FlowJo LLC). Samples were gated forward scatter height (FSC-H) by forward scatter area (FSC-A) and side scatter height (SSC-H) by side scatter area (SSC-A) to remove doublet populations. The singlet population was gated SSC-A by FSC-A to isolate live cells. The resulting cell population was then assessed for assay-specific fluorescent markers and the median fluorescence intensity (MFI) quantified.

[1] = test system: zebrafish larvae (WT and zng1^−/−); assay: Zebrafish larval survival under Metap inhibitor immersion; assay type: in vivo
Experimental: (§1) For all experiments larval zebrafish were bred naturally and collected into embryo media and were maintained at 28° C. on a 14/10 h light/dark cycle for duration of experiments. For survival experiments, zebrafish larvae were split into even densities into 6 or 12 multi-well plates in 5 mL or 1 mL embryo media respectively at 3 dpf. Stock solutions of METAP2 inhibitor TNP-470 (Sigma, T1455) and METAP1/2 inhibitor Bengamide B (Santa cruz, sc-397521A) were prepared in ACS-grade DMSO (Fisher Scientific, D136) and TPEN (Sigma, P4413) was prepared in ethanol and stored at −20° C. TNP-470, Bengamide B, and/or TPEN were applied into embryo media as well as a DMSO and/or ethanol vehicle controls at 3 dpf. Zebrafish survival was monitored daily until 6 dpf and all moribund or dead animals were removed. For qPCR experiments, larvae were split at 3 dpf into groups of 20-30 larvae in 20 mL of embryo media supplemented either 20 μM of TPEN or ethanol vehicle control. For imaging experiments, 6 dpf zebrafish larvae treated with 500 nM to 1 μM of Bengamide B or vehicle control were imaged by a Leica Thunder M205FCA stereomicroscope with a Leica DFC9000 GT camera.

murine METAP1 1-79 = murine METAP1 1-79 (mouse, UniProt Q8BP48); assay: intrinsic Trp (W45) fluorescence quenching, 1:1 model
Experimental: (§2) Peptide binding experiments were performed using an ISS PC1 spectrofluorometer at 25.0° C. Intrinsic Trp fluorescence was monitored using λₑₓ=292 nm nm and λₑₘ=350 nm, with quenching of the 350 nm emission maxima as aliquots of ZNG1 peptide were added. Different [METAP1_{1-59/1-79}] values were used for replicate experiments to better calculate the binding stoichiometry and analyzed globally. In a typical experiment, 5 μM METAP1_{1-59/1-79} in 2.5 mL were incubated for 10 min in chelexed buffer [25 mM HEPES (pH 7.4), 150 mM NaCl, and 2.5 mM TCEP], and aliquots of ZNG1 peptide were added. The equilibrium time was 2 min between subsequent additions of ZNG1 peptide. The peak emission intensities at 350 nm from triplicate experiments were globally fit to a 1:1 binding model using Dynafit (Kuzmic, 1996).
(§3) METAP1 binding of ZNG1 peptides was confirmed by monitoring quenching of W45 fluorescence in murine METAP1₁₋₅₉ and METAP1₁₋₇₉, upon addition of chemically synthesized N-terminal ZNG1 peptides from human, mouse, and zebrafish (FIGS. 2D,E and 9 I). […] Combined, these findings identify the specific regions of interaction between ZNG1 and METAP1.

murine METAP1 1-59 = murine METAP1 1-59 (mouse, UniProt Q8BP48); assay: as above
Experimental: as §2, §3

[2] = test system: zebrafish larvae (WT, zng1 mutant, metap1 mutant); assay: Zebrafish larval morphometry and gross pathology imaging; assay type: in vivo
Experimental: as §1

murine METAP1 = target: T1, murine METAP1 (Mus musculus, UniProt Q8BP48); assay: Murine ZNG1 activation of METAP1 assay (Met release from MAHAIHY); assay type: biochemical
T1 construct: final preparations of full-length METAP1 utilized in in vitro experiments in this study were purified, stripped of metal; 6xHis (N, cleaved yes); SUMO (N, cleaved yes); made in house; host or cells: E. coli BL21(DE3)
Experimental: Methionine aminopeptidase activity was evaluated by quantifying the release of Met from the heptapeptide MAHAIHY (Genscript) as adapted from (Kabir-ud-Din, 2003). Reactions were conducted at 25° C. in 25 mM HEPES pH 7.4, 150 mM NaCl, 2 mM TCEP and consisted of 20 nM murine METAP1 with 0, 1, or 2 molar equivalents of Zn. Reactions were initiated with the addition of varying concentrations of MAHAIHY peptide. 50 μL aliquots were taken every 30 sec from 30-150 sec and the reaction was quenched with the addition of 10 μL glacial acetic acid (Supelco, Sigma-Aldrich). 60 μL of 4% w/v ninhydrin (Sigma-Aldrich) in 100% ACN was added to each quenched reaction and incubated at 37° C. for 1 h to detect free Met. The absorbance at 570 nm was measured and the cleaved Met concentration was determined from a standard curve of 10-500 μM Met. All data are reported as the average of triplicate measurements from each evaluated experimental condition. Midpoint and completed reactions were additionally analyzed by LC-ESI-MS to confirm the generation of the expected AHAIHY cleaved peptide product (FIG. 11 I).
Activation assays were performed in 25 mM HEPES pH 7.4, 150 mM KCl, 2 mM MgCl2, 2 mM TCEP. 250 μM NTA was included where indicated. 10 μM Zn2METAP1 was incubated with 25 μM apo or ZnZNG1 (ZNG1 loaded with 0.9 eq, 22.5 μM, Zn) at 37° C. for 1 h. Reactions were diluted 500-fold in 25 mM HEPES pH 7.4, 150 mM NaCl, 2 mM TCEP to a final concentration of 20 nM METAP1 and methionine aminopeptidase activity was assayed as described above by initiating the enzymatic reaction with addition of 750 μM MAHAIHY. When using GTP, GDP, or GDPNP, the activation reaction contained 500 μM of the indicated nucleotide. A control activation reaction of Zn-NTA contained 22.5 μM and 250 μM NTA in reaction buffer.

zebrafish Metap1 = target: T2, zebrafish Metap1 (Danio rerio, UniProt Q4QRK0); assay: Zebrafish Metap1 methionine aminopeptidase activity (HPLC endpoint); assay type: biochemical; settings: 1 μM Dr Zng1 and 1 μM Metap1, 100 μM MAHAIHY
T2 construct: Full-length zebrafish metap1 was amplified from 6 dpf whole larval cDNA and cloned into pLM302; 6xHis (N); MBP (N); made in house; host or cells: E. coli BL21(DE3)
Experimental: A single endpoint assay was used for these experiments. Reaction buffer (20 mM HEPES (pH 7.5), 150 mM NaCl) was chelex treated overnight at 4° C. 1 μM solutions of zebrafish Metap1 and Zng1 were made in reaction buffer. To strip Zn from the METAP1 active site, 3 μM of TPEN was incubated with 1 μM METAP1 at 4° C. for 1 h. To prepare holo-Zng1 (Zn bound), Zng1 was incubated with 10 μM of ZnCl2 for 1 h at 4° C. As a control, Metap1 was incubated with reaction buffer alone. Following the 1 h incubation, Zng1 and Metap1 were washed four times with chelex-treated reaction buffer using protein concentration columns (Amicon Ultra, UFC500396). After washes, proteins were mixed and incubated at 37° C. for 30 min. Following incubation, 100 μM of the synthetic peptide MAHAIHY (Genscript) was added to reactions and incubated for 90 min at 37° C. Reactions were stopped by the addition of a final concentration of 2% trifluoroacetic acid and samples were centrifuged at max speed for 5 min. […]
Twenty μL of each sample and standard was analyzed on an Agilent 1260 Infinity II system. […] MAHAIHY and AHAIHY were detected using absorbance at 280 nm, and retention times were confirmed using each standard. Methionine aminopeptidase relative activity was determined by calculating the percent of MAHAIHY converted to AHAIHY using the AUC values at 280 nm for each peptide.

[3] = 10 μM Zn2METAP1, 25 μM ZNG1, no nucleotide

Molecule: CO[C@@H]1[C@H](OC(=O)NC(=O)CCl)CC[C@]2(CO2)[C@H]1[C@@]1(C)O[C@@H]1CC=C(C)C [TNP-470]
- proliferation (CellTrace) (TKPTS cells; Zng1^−/− cells relative to WT, 5 μg/ml TNP-470): slowed proliferation
- survival ([1]; zng1 mutant larvae compared to WT, Zn-deplete conditions (TPEN)): more pronounced
- survival ([1]; zng1 mutant larvae compared to WT, immersion, three days): decreased survival

- Kd (murine METAP1 1-79): 100 nM
- Kd (murine METAP1 1-59): 100 nM
Molecule: Hs ZNG1 N-terminal peptide

Molecule: CCCCCCCCCCCCCC(=O)O[C@H]1CC[C@H](NC(=O)[C@H](OC)[C@H](O)[C@@H](O)[C@H](O)/C=C/C(C)C)C(=O)N(C)C1 [Bengamide B]
- proliferation (CellTrace) (TKPTS cells; WT TKPTS cells, 50 nM Bengamide B): reduced cellular proliferation
- height at anterior anal fin (HAA) ([2]; WT larvae, 6 dpf, three days 500 nM vs vehicle): significantly reduced HAA
- morphologic abnormalities (PCE, YSE, USB, CD) ([2]; metap1 mutant larvae vs WT controls at 6 dpf, 1 μM): significantly higher morphologic abnormalities
- survival ([1]; WT control larvae, 1 μM inhibitor, three days of treatment): remained viable
- lethality ([1]; zng1 mutant larvae, 1 μM inhibitor, three days of treatment): 100%
- viability ([1]; zng1 mutant larvae, co-treatment 500 nM Bengamide B and TPEN vs 500 nM Bengamide B alone): decreased viability

- activation of Zn2METAP1 (murine METAP1; 250 μM NTA, GDPNP): no effect
- activation of Zn2METAP1 (murine METAP1; 250 μM NTA, GTP, above that of NTA-bound Zn): significant activation
- activation of Zn2METAP1 (murine METAP1; 250 μM NTA, presence and absence of GDP): only minor activation
- activation of Zn4METAP1 (murine METAP1; fully metalated Zn4METAP1, absence of nucleotide): no activation
- activation of Zn2METAP1 (murine METAP1; in the presence of 500 μM GDP): some ZnZNG1-dependent activation
- activation of Zn2METAP1 (murine METAP1; in the presence of 500 μM GDPNP): no activation
- activation of Zn2METAP1 (murine METAP1; in the presence of 500 μM GTP): nearly fully activates
Molecule: ZnZNG1: recombinant murine ZNG1 loaded with 0.9 eq Zn at the high-affinity site
- activation of Zn2METAP1 (murine METAP1; [3]): recovers small amounts of Zn4METAP1 activity

- activation of Zn2METAP1 (murine METAP1; [3]): no activation
Molecule: ApoZNG1: recombinant murine ZNG1 devoid of bound metal

Molecule: Zebrafish Zng1: recombinant zebrafish Zng1, Zn bound (holo-Zng1)
- apo-Metap1 activity (zebrafish Metap1): stimulates

- Kd (murine METAP1 1-79): ~100 nM
- Kd (murine METAP1 1-59): ~100 nM
Molecule: Ac-AEEEYAEDCPELVPIETKNQE-NH2 [Mm ZNG1 N-terminal peptide]

- Kd (murine METAP1 1-79): ~100 nM
- Kd (murine METAP1 1-59): ~100 nM
Molecule: Ac-MEDEDECPELVPIKEKPSGP-NH2 [Dr ZNG1 N-terminal peptide]
